Reference: patent US20040161798A1

Assays:
His6Gal80, P04387 [1] = biological target: T1, His6Gal80, P04387; test: dilution assay on TentaGel beads, Western blot
T1 chain: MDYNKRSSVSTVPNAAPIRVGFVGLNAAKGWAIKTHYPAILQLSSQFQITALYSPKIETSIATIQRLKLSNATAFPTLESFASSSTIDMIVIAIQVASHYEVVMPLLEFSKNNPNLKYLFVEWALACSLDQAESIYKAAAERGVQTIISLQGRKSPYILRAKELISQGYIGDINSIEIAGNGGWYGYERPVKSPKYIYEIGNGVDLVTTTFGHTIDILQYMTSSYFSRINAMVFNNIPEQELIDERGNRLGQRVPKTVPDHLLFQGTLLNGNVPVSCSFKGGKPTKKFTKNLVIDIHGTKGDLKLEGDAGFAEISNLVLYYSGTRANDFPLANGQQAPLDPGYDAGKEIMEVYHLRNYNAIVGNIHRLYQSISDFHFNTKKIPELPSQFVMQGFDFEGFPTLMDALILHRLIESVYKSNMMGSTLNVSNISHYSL

His6Gal80, P04387 [2] = biological target: T1, His6Gal80, P04387; test: fluorescence polarization after adding excess unlabeled peptide
His6Gal80, P04387 [3] = biological target: T1, His6Gal80, P04387; test: capture of dilute Gal80 (0.4 nM) by TentaGel-Gal80bp, Western blot
His6Gal80, P04387 [4] = biological target: T1, His6Gal80, P04387; test: fluorescence polarization titration of fluorescein-labeled peptide in solution
His6Gal80, P04387 [5] = biological target: T1, His6Gal80, P04387; test: capture of dilute Gal80 by TentaGel-Gal80bp, Western blot against a calibration blot
His6Gal80, P04387 [6] = biological target: T1, His6Gal80, P04387; test: capture of Gal80 by 2 mg of TentaGel-Gal80bp at the higher protein concentrations, Western blot
His6Gal80, P04387 [7] = biological target: T1, His6Gal80, P04387; test: fluorescence polarization in solution: fluorescein-labelled peptide titrated with Gal80 protein

bound protein left on the beads (percent of the original level) (His6Gal80, P04387 [1]): 50%
half-life of the complex in solution (His6Gal80, P04387 [2]): < 10 s
percent of the protein bound to the beads (His6Gal80, P04387 [3]): 100%
Kd (His6Gal80, P04387 [4]): 300 nM
Kd (His6Gal80, P04387 [5]): < 0.4 nM
amount of protein retained on the beads (His6Gal80, P04387 [6]): 50 ng
Kd (His6Gal80, P04387 [7]): 200 nM
Binder: YDQDMQNNTFDDLFWKEGHR (modifications not checked) [Gal80bp]
